B1: Pyrobaculum calidifontis arcadin-2 (natural protein)
chain: MDFPKVLLIRHFTEVLGMKYAGEGGEVLWFEEGLNRVAVGIYFTDLYEEAELYKRVGALMGLGASKVFLAVLPDALAFVDPRYFKANGVGLVVVDPAKGVDGVEVKIFARARPAAVEPLKIDAVKAALHEYLASELKRVEESLFEKVRRYVDQRVEEVKRALQAVEEAKRAAPPVQRAAAESAQEPRGGIGENEWVKILRSKR

Experiments:
[1] = molecular target: T1, Pyrobaculum calidifontis crenactin (Pyrobaculum calidifontis, UniProt A3MWN5 1-432); experiment: SPR
[2] = molecular target: T1, Pyrobaculum calidifontis crenactin; experiment: SPR; remark: listed apart in the source
[3] = molecular target: T1, Pyrobaculum calidifontis crenactin; experiment: SPR; slow phase
[4] = molecular target: T1, Pyrobaculum calidifontis crenactin; experiment: SPR; fast phase
[5] = molecular target: T1, Pyrobaculum calidifontis crenactin; experiment: SPR; fast phase; remark: listed apart in the source
[6] = molecular target: T1, Pyrobaculum calidifontis crenactin; experiment: SPR; slow phase; remark: listed apart in the source

T1 sequence (A3MWN5 whole entry): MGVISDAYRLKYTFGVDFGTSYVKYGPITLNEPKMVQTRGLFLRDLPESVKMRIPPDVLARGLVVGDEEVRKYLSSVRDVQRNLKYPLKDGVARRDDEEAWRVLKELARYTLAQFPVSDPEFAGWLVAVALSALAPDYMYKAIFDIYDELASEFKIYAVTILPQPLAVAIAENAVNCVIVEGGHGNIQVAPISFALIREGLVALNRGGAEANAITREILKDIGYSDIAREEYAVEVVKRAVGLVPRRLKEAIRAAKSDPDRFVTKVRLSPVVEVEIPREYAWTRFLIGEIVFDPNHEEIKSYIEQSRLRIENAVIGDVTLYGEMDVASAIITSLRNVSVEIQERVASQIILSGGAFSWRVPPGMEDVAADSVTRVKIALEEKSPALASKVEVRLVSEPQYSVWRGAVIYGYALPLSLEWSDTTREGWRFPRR

Binder	Kd [1]	koff [2]	koff [3]	koff [4]	Kd [5]	Kd [6]
RGGIGENEWVKILRSKR [arcadin-2 C-terminal peptide (residues 187-203)]	9 nM	0.019 s⁻¹				
B1			0.0034 s⁻¹	0.019 s⁻¹	24 nM	59 nM
